Patent US20140072613A1, “Compositions and Methods for Treating Cutaneous Scarring” (priority 2012, published 2014)

Tests used:
Test in all cases: biochemical
Format in all cases: biochemical
266 human kinases [1] = target: 266 human kinases (Homo sapiens, UniProt Q15418); conditions: Rsk1(h); 100 μM
In short: (§1)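 A filter-capture radiometric assay: phosphorylated cationic substrate binds an anionic membrane and is scintillation-counted, with values referenced to full-activity control.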

266 human kinases [2] = target: T1, 266 human kinases (Homo sapiens, UniProt Q8IW41); conditions: PRAK(h); 100 μM
T1 sequence (Q8IW41 1-473): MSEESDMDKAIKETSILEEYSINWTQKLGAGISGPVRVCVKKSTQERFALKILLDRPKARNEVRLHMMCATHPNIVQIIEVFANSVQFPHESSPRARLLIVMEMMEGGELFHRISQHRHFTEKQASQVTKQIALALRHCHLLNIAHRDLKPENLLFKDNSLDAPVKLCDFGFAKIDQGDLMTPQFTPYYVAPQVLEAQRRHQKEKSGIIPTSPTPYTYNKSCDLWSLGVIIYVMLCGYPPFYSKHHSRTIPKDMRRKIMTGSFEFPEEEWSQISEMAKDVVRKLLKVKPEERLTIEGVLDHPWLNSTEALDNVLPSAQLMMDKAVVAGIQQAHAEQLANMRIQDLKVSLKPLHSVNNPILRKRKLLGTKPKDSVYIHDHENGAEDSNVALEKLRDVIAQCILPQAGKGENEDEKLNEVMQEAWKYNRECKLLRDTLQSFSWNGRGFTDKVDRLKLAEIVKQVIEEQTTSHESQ
In short: as §1

266 human kinases [3] = target: T2, 266 human kinases (Homo sapiens, UniProt O15146); conditions: MuSK(h); 100 μM
T2 sequence (O15146 24-869): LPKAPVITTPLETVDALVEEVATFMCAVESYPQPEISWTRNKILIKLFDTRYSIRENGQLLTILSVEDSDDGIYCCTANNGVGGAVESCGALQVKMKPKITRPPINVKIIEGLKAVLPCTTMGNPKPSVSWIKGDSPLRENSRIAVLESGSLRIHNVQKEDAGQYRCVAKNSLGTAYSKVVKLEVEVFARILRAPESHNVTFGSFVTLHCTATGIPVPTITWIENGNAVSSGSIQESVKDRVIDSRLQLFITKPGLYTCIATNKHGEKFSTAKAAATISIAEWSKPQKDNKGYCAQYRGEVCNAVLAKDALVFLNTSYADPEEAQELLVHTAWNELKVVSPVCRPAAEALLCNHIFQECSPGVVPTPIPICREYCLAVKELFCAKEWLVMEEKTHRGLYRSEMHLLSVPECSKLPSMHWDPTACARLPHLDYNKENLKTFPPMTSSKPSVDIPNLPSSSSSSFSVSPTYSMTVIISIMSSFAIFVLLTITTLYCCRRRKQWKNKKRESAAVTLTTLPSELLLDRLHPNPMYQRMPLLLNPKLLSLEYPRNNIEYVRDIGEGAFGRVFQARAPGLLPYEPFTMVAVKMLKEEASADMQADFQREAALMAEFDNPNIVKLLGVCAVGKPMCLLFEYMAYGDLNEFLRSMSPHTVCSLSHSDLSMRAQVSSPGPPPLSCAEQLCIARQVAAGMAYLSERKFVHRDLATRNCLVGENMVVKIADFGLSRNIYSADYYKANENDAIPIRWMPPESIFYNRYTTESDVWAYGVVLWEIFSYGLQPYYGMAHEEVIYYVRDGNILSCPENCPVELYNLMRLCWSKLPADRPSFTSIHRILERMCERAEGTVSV
In short: as §1

266 human kinases [4] = target: 266 human kinases (Homo sapiens, UniProt Q06187, R28H); conditions: BTK(R28H)(h); 100 μM
In short: as §1

266 human kinases [5] = target: T3, 266 human kinases (Homo sapiens, UniProt P21709); conditions: EphA1(h); 100 μM
T3 sequence (P21709 26-976): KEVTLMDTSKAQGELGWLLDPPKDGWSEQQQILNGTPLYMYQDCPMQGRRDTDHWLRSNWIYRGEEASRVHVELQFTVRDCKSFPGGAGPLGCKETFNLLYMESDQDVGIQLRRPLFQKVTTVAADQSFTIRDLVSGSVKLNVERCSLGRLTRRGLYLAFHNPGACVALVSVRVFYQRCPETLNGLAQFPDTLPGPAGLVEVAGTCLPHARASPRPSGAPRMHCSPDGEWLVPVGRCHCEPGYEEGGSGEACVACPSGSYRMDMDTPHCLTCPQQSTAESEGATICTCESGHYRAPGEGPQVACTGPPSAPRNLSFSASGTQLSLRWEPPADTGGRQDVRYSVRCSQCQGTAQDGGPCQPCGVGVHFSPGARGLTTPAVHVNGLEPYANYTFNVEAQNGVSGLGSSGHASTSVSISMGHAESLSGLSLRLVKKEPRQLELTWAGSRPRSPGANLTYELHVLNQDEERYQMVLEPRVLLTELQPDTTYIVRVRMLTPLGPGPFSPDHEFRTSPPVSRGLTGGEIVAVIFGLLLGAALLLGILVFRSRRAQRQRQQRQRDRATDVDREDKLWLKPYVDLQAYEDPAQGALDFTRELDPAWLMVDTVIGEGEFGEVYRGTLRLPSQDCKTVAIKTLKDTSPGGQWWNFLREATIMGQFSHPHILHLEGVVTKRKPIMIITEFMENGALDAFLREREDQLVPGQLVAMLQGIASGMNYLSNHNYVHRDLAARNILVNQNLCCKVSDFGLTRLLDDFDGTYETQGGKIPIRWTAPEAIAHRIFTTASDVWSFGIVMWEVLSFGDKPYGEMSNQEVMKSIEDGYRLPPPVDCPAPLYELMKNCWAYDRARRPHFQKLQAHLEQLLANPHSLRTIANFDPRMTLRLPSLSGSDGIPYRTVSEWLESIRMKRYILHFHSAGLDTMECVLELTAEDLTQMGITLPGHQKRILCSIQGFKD
In short: as §1

266 human kinases [6] = target: 266 human kinases (Homo sapiens, UniProt P00519, Q252H); conditions: Abl(Q252H)(h); 100 μM
In short: as §1

266 human kinases [7] = target: 266 human kinases (Homo sapiens, UniProt P07949, V804M); conditions: Ret(V804M)(h); 100 μM
In short: as §1

266 human kinases [8] = target: 266 human kinases (Homo sapiens, UniProt Q9H422); conditions: HIPK3(h); 100 μM
In short: as §1

266 human kinases [9] = target: 266 human kinases (Homo sapiens, UniProt P07333, Y969C); conditions: Fms(Y969C)(h); 100 μM
In short: as §1

Sequence of 266 human kinases (Homo sapiens, UniProt Q9H422) (Q9H422 whole entry): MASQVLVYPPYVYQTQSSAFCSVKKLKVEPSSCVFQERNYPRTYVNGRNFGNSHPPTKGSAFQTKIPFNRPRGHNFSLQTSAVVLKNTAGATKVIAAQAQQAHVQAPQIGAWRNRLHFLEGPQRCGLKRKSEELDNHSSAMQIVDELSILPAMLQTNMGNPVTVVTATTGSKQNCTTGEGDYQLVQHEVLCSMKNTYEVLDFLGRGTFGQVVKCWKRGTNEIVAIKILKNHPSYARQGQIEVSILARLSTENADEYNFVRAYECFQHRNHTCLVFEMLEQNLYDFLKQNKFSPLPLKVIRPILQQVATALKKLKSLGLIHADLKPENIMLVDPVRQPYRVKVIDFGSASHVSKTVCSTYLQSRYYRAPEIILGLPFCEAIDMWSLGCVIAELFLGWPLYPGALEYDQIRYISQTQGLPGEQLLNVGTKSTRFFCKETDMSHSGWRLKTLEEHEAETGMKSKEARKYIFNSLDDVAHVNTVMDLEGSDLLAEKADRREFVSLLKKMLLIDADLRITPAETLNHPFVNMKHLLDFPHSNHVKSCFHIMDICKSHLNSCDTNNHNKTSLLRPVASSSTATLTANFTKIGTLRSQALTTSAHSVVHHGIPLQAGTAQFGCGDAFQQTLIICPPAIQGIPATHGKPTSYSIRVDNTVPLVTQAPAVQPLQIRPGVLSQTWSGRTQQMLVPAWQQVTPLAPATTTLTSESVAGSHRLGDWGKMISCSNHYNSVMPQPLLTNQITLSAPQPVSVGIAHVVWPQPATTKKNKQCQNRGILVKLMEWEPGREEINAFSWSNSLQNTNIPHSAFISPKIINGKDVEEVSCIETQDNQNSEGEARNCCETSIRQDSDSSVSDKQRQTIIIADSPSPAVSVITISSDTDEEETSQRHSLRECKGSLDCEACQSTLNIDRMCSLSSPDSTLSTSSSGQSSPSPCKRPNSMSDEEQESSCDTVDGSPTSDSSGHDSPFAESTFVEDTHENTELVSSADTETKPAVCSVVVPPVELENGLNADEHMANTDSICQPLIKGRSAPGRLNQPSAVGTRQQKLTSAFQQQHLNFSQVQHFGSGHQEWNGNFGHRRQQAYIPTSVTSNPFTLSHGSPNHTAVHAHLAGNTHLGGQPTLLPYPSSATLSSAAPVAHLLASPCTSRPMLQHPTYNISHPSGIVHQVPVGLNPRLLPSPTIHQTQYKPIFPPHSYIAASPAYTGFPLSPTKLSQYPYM
Sequence of 266 human kinases (Homo sapiens, UniProt Q15418) (Q15418 whole entry): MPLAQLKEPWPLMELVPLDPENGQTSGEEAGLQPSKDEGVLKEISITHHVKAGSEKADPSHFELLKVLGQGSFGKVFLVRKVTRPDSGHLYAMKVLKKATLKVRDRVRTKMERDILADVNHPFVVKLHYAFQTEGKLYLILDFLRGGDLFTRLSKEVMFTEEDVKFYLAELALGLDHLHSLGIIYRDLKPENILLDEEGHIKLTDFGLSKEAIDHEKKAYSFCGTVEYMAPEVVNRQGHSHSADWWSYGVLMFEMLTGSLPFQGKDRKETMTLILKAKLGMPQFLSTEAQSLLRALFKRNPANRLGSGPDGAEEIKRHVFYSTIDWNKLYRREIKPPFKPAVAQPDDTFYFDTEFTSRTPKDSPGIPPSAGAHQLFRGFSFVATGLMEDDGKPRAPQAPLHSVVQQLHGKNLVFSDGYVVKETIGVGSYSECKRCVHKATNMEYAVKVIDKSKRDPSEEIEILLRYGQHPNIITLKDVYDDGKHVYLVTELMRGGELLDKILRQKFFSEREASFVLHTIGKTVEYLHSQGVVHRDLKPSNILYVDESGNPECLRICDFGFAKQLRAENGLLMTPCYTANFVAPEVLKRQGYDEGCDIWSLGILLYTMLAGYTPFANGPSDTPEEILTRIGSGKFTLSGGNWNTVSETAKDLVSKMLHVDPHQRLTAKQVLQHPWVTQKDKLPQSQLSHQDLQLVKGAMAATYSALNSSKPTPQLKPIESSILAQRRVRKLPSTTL
Sequence of 266 human kinases (Homo sapiens, UniProt Q06187, R28H) (Q06187 whole entry R28H): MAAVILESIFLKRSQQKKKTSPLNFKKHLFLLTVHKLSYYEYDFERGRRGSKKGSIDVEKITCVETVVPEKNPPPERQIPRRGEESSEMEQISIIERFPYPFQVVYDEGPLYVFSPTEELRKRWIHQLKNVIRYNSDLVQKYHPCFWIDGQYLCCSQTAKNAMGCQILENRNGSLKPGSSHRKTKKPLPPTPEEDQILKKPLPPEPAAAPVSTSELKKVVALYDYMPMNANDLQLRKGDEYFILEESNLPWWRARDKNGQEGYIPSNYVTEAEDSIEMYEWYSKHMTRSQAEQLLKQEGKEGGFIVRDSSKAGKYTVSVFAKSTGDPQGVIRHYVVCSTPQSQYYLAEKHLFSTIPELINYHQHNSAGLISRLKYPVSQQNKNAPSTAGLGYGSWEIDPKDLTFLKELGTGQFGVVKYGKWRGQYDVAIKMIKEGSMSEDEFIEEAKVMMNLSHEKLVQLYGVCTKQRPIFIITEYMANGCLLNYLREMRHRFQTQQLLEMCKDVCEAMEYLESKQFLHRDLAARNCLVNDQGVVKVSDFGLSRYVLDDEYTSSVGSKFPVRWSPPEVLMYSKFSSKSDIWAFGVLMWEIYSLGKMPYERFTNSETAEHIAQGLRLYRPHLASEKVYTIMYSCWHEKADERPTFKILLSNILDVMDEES

| Sequence | % activity (266 human kinases [1]) [%] | % activity (266 human kinases [2]) [%] | % activity (266 human kinases [3]) [%] | % activity (266 human kinases [4]) [%] | % activity (266 human kinases [5]) [%] | % activity (266 human kinases [6]) [%] | % activity (266 human kinases [7]) [%] | % activity (266 human kinases [8]) [%] | % activity (266 human kinases [9]) [%] |
| --- | --- | --- | --- | --- | --- | --- | --- | --- | --- |
| HRRIKAWLKKIKALARQLGVAA (mammal) [MMI-0500] | 34 | 95 | 27 | 10 | 40 | 40 | 36 | 85 | – |
| YARAAARQARAKALNRQLGVA (mammal) [MMI-0200] | – | – | – | – | – | – | – | – | 88 |
